Here are results for 1 sequence from patent US20140322717.

This data set has as its system TspRI (Thermus sp.?). Nature of the data set: cleavage_in_vitro. To be noted: destruction of wild type PCR product during qPCR, 85 C denaturation. (Quantitative PCR measures a nucleic acid by following its amplification.)

The sequence “AGACATACTTATTGACTCTAAGAGGAAAGATGAAGTACTATGTTTTAAAGAATATTATATTACAGAATTATAGAAATTAGATCTCTTACCTAAACTCTTCATAAAGCTTGCTCTGATAGGAAAATGAGATCTACTGTTTTCCTTTACTTACTACACCTCAGATATATTTCTTCATGAAGACCTCACAGTAAAAATAGGTGATTTTGGTCTAGCTACAGTGAAATCTCGATGGAGTGAGTCCCATCAGTTTGAACAGTTGTCTGGATCCATTTTGTGGATGGTAAGAATTGAGGCTATTTTTCCACTGATTAAATTTTTGGCCCTGAGATGCTGCTGAGTTACTAGAAAGTCATTGAAGGTCTCAACTATAGTATTTTCATAGTTCCCAGT (double strand) [B-raf synthetic wild type template]” displayed an activity of more than 99%.
